Patent publication US20250002593A1

B1: REGN14 (antibody, V domains shown)
VH: EVQLVESGGDLVQPGRSLRLSCAASGFTFDDYAMHWVRQAPGKGLEWVSVISWNSDVIAYSDSVKGRFTISRDNAKNSLYLQMNSLRTEDTALYYCTKGHKWSFFDYWGQGTLVTVSS
VL: EIVLTQSPATLSLSPGERATLSCRASQSISSYLAWYQQKPGQAPRLLIFNVANRATDIPARFSGSGSGTDFTLTISSLEPEDFAVYYCQQRSNWPLTFGGGTKVEIK
B2: ANB019 (antibody, V domains shown)
VH: QVQLVQSGAEVKKPGASVKVSCKASGYTFTNYWMNWVRQAPRQGLEWMGMFHPTGDVTRLNQKFKDRVTMTRDTSTSTVYMELSSLRSEDTAVYYCARTTSMIIGGFAYWGQGTLVTVSS
VL: DIVMTQTPLSLSVTPGQPASISCRSSKSLLHRNAITYFYWYLHKPGQPPQLLIYQMSNLASGVPDRFSGSGSGTDFTLKISRVEAEDVGVYYCAQNLELPLTFGGGTKVEIK
B3: BI655130 (antibody, V domains shown)
VH: QVQLVQSGAEVKKPGASVKVSCKASGYSFTSSWIHWVKQAPGQGLEWMGEINPGNVRTNYNENFRNKVTMTVDTSISTAYMELSRLRSDDTAVYYCTVVFYGEPYFPYWGQGTLVTVSS
VL: QIVLTQSPGTLSLSPGERATMTCTASSSVSSSYFHWYQQKPGQAPRLWIYRTSRLASGVPDRFSGSGSGTDFTLTISRLEPEDAATYYCHQFHRSPLTFGAGTKLEIK

These binders were tested against membrane cyno IL-36R (cynomolgus) (assay: binding to cynomolgus IL-36R; the legend and Example 8 say membrane cyno IL-36R on transfected HEK293 cells by FACS, but the y axis on the sheet is OD450 nm; unit taken from the x axis).

EC50	Binder
0.0059 µg/mL	B1
0.0132 µg/mL	B2
0.196 µg/mL	B3
